This note sets out measurements from patent US20260232802A1 (published 2026).

The target in experiment [1] is T1, Human Telomerase Reverse Transcriptase (hTERT) peptide on HLA-A*03:01 (human).
T1 peptide: SVLNYERARR
As to the kind of experiment: multimer staining.

Experiment [2] has as its target T2, Survivin (BIRC5), modified form of the peptide peptide on HLA-A*02:01 (human).
T2 peptide: LMLGEFLKL
The experiment is described as follows: multimer staining.

In experiment [3] the target is T3, Survivin (BIRC5) peptide on HLA-A*02:01 (human).
T3 peptide: LTLGEFLKL
The experiment is described as follows: killing. The procedure: (A) Survivin-specific transgenic T cells were co-cultured with Survivin⁺ primary AML blasts expressing (target blasts) or not (control blasts) the HLA-A0201⁺ allele in 1:1 effector to target ratio. After 24 hours, elimination index was calculated as [1-(number of alive blasts cultured with edited T cells/number of alive blasts alone)]. (B) Survivin-specific transgenic T cells were co-cultured with Survivin⁺ primary AML blasts expressing (target blasts, upper) or not (control blasts, lower) the HLA-A0201⁺ allele in 1:1 effector to target ratio. Killing is represented as area covered (μm²) by cells undergoing apoptosis (caspase 3/7 activation) overtime. […] Data are presented as means±SD. ****P<0.0001, by Student t-test (A) or two-way ANOVA (B).
For killing assay cells were plated and kept at 37° C. and 5% CO2 after the addition of anti-CD28 monoclonal antibodies (1 μg/ml; BD biosciences) for 72 hours in case of co-culture with cell lines, and for 24 hours for co-cultures with primary AML blasts. […] Viable target cells were counted using counting beads (Flow-count fluorospheres, Beckman Coulter), according to manufacturer's instructions. Elimination index was calculated according to the formula: [1-(number of alive target cells in culture with effector T cells/number of alive target cells in control culture)]. […] Data were analyzed by FlowJo software version 10 (BD).

B1: hTERT #2 (TCR, V domains shown)
Valpha: GQNIDQPTEMTATEGAIVQINCTYQTSGFNGLFWYQQHAGEAPTFLSYNVLDGLEEKGRFSSFLSRSKGYSYLLLKELQMKDSASYLCAVSRPNSGYSTLTFGKGTMLLVSP
Vbeta: AAGVIQSPRHLIKEKRETATLKCYPIPRHDTVYWYQQGPGQDPQFLISFYEKMQSDKGSIPDRFSAQQFSDYHSELNMSSLELGDSALYFCASSVRTPSGQETQYFGPGTRLLVL
As for B1, the binding result in experiment [1] was “recognises”.

B2: Survivin TCR (TCR, V domains shown)
Valpha: SQKIEQNSEALNIQEGKTATLTCNYTNYSPAYLQWYRQDPGRGPVFLLLIRENEKEKRKERLKVTFDTTLKQSLFHITASQPADSATYLCALDRMDSSYKLIFGSGTRLLVRP
Vbeta: NAGVTQTPKFQVLKTGQSMTLQCAQDMNHEYMSWYRQDPGMGLRLIHYSVGAGITDQGEVPNGYNVSRSTTEDFPLRLLSAAPSQTSVYFCASSYDQDGEAFFGQGTRLTVV
B2: the binding result in experiment [2] and in experiment [3] was “recognises” in each case.

B3: hTERT #1 (TCR, V domains shown)
Valpha: GENVEQHPSTLSVQEGDSAVIKCTYSDSASNYFPWYKQELGKRPQLIIDIRSNVGEKKDQRIAVTLNKTAKHFSLHITETQPEDSAVYFCADWVDMRFGAGTRLTVKP
Vbeta: GAVVSQHPSWVICKSGTSVKIECRSLDFQATTMFWYRQFPKQSLMLMATSNEGSKATYEQGVEKDKFLINHASLTLSTLTVTSAHPEDSSFYICSAPLDRGSNQPQHFGDGTRLSIL
Regarding B3, in experiment [1], the binding result was “recognises”.

B4: hTERT #3 (TCR, V domains shown)
Valpha: KDQVFQPSTVASSEGAVVEIFCNHSVSNAYNFFWYLHFPGCAPRLLVKGSKPSQQGRYNMTYERFSSSLLILQVREADAAVYYCAVETGGGATNKLIFGTGTLLAVQP
Vbeta: NAGVTQTPKFQVLKTGQSMTLQCAQDMNHNSMYWYRQDPGMGLRLIYYSASEGTTDKGEVPNGYNVSRLNKREFSLRLESAAPSQTSVYFCASSEFWLTQETQYFGPGTRLLVL
As to B4, the binding result in experiment [1] was “recognises”.

B5: hTERT #4 (TCR, V domains shown)
Valpha: GIQVEQSPPDLILQEGANSTLRCNFSDSVNNLQWFHQNPWGQLINLFYIPSGTKQNGRLSATTVATERYSLLYISSSQTTDSGVYFCAVSHGRGGATNKLIFGTGTLLAVQP
Vbeta: NAGVTQTPKFQVLKTGQSMTLQCAQDMNHNSMYWYRQDPGMGLRLIYYSASEGTTDKGEVPNGYNVSRLNKREFSLRLESAAPSQTSVYFCASDRVLGYEQYFGPGTRLTVT
Turning to B5, the binding result in experiment [1] is reported as “recognises”.
